Measurements taken from the DeepSol protein solubility set.

Experiment: soluble on expression in E. coli; label from the status in PepcDB or PDB records

Row | Sequence | soluble on expression in E. coli
1 | AIAGRKSNRAKEKKQRRLEERAAMDAVCAKVDAANKLEDPLSAMPVFKKYDRNGLNLQIECKRVTALSPDTVEWAYELTRANMQTLYEQSEWGWKEREKREEMKDERAWYLLARDADSTPLAFSHFRFDVECGDEVLYCYEVQLESKVRRKGLGKFLIQILQLIANSTQMKKVMLTVFKHNHGAYQFFREALQFEIDETSPSMSGCCGEDCSYEILSRRTKYGEVSGHAHGGHCGGCCH | soluble
2 | AIALTYIILVLHLQNHVWEDVTVHNSSLPPLAIKHPECLGLLHQLERSTDVWIQHYCILKDGCLYFYASIRSTQASGGLYLQGYSVSEQTHGFEQPVIELKPSSEEFKTFYFCAENKTENQRWIAALKTSIKKWLPLDQAIQEFMSRPLEETRM | soluble
3 | AIANVWLLGRGELRRRHDDVLQLERAFLTDRTGLHFVNARSSEDLLALAESRRAEQQWPVLDAEWISPVGTDTCDDLVWQNLESTLDGRPDTFYSTAGFEAGNTLSGTGELAPGEAFLAYRFWRPVRVYAVQLRAFQADFHPGRPVYPFQVARVGVGCSLQAGMSLSYGADASAPGTSCNYRCFCTTEQQTLVFDDPMVGVYLVICLKGFPQQQLTDRLHYAAVSGIRVFGEPISSPALENELSCLISRGFILDGRDAARWLDLRSAQEHAAPMHIPEDEVI | soluble
4 | AIAPTELSRTEKKSLIWLFKEHGLRVDGRSALRSRSVSVAVDVLPSTAGSSRVFVGRTNDVLVGINLELRQYNLPAHAEDDAKRGSIAFSVEFCGVASPEFQGRSTEVLEAELVSFLDTAYAASPEFLADLFCREQRLASDPGTLRVCCWDVYVDVLVLGASGGNILDAVTYAVRAALATTVVPSVYWQDSESGGSWELDDRAEYCALLNASNAPLSASGAFIPPLVRDSRTEHDQVTLVAPRWFIIDPCAEEETLAGCFLSVASDSAQHLRAIWKRGSLPVEPDVVLDAAQQCIRDSAYACQEMDHFISELVATEESESVDDVPG | soluble
5 | AIASAEAADREAVSGSRPCTPPQTSWFEFLLNPSLLEQHLHSPHPDPSPVQLIFQFLEQASKPSVNEQNQVQPPVDNRRNRTLKLMALKVAAHLRWDLNMLEKGLTIPVLNMLLNELLCVSHVPPGVKHVDLDLSSLPPTTAMAVVFYNRWAIRTIVLSSFPEKQTKPGPHQLNMMNMLQQEKEHTENILSVLREQATDSIMVLEGALSIKKDFYIHL | soluble
6 | AIASYCRQEGKDKIIFVTKEDHETPSSAELIADDPNDPFEEQGLILPNGDINWNCPCLGGMASGPCGEQFKSAFSCFHYSQEEIKGSDCLDQFRAMQECMQKYPELYPQEDDEDELEKEKQNKDEESSVTQSSDTKEESSS | soluble
7 | AIATANLAATDDWGELLDVLDPGDPTGSRVIARYDRLRVHREGLLHRSVHVCVVRSVPDWPAQVHGLRNTNYKLLLQRRSESKAIAPGCWDLSCAEHLRAGESFEGAAVRGLQEELGLALAPDQQTTPIHALDDGEPALQLYDYPSVGLTDYEWNRIYVVFVTDQADEALAKLKLDSAEVAQVRWITRESLQMELAENPSHFTPWFRDQARKHLLPSAYN | soluble
8 | AIAYRDRYPYYDGEVYDDTGVVFPENIERRPNGRRVIVEEPEDYGMPNDRGVEDEYDERNPFRGGHSMQPWNQSPFDHFDRLFETPFAGLDRGSFGGMFGNIEQSLRRLEEDFARGAGRGNAHVYSFSSKKHFGPEGEVYEESTTTTREGNRTEVRRHLKDSAAGNEEYAWKREIDGRGREVIRRRDGSGQEVTKENYYNLTPEERAQFEQQWRTLAREGLDWRGSEGNNASLPQLSDRSSWMEHDRNEHRGGLGGFFRKLFKHD | soluble
9 | ALGVDKPREIAFEVLDRVRTGEAYANLVLPRLLSKHNLSGRDAAFATEITYGTLRNVGLLDEVIKAASGRELSDIDPEVLDVLRLGAYQVMFTRVEDHAAVDTSVKMVGGLKKFQATGFANAILRNITRKEPEQWLKELEPAEELARVAFRTAHPRWIA | not soluble
10 | ALSGSSGYKFGVLAKIVNYMKTRHQRGDTHPLTLDEILDETQHLDIGLKQKQWLMTEALVNNPKIEVIDGKYAFKPKYNVR | soluble
11 | AMAELKEFLNKPAATSDVPPAPAGFDFDAAKKLVDVRCNKCHTLDSVADLFRTKYKKTGQVNLIVKRMQGFPGSGISDDDAKTIGIWLHEKF | soluble
12 | ANATKNTPSEDQQLANIIETHEAFYLKSSPFNQPEVIGNNAKLPDLSADFLLAQYQQGLAIYQQLIALDNEKLTQENQINFSVLTYSLKNQLDSYINKEHYMPLTAESGFHVWIANISKQVDFKTFTDYQDYLVRLSLLPAYFSQQTYWMKKGLKSGISQPKIVLKGFEQSIAAYIKEDVTESSYYQPFNKMSAFITTSQKKDLQQQAKQVLSTKVMPAYTAYYDFMVNVYQPNARDNIAAISLPNGKEYYQNRLVHYTTLPMTATEVHQQGVGEVKRIRVEMNAIIEQVNFDGSFSEFVEFLRTDPQFYASTPTELLKEASFIAKKMDAKLPRLFKTLPRTPYGVMAVPANIAPKYTTGRYAGSSRDDQPGNYWVNTYRLDRRPLYVLTALTLHEAVPGHHLQISLAKEMKDVAKFRNRSYISAFGEGWGLYSEYLGIEAGMYEDPYHNFGRLTYEMWRACRLVVDTGMHTQGWSREQAMDFLASNTALSLHNVKTEIDRYISWPGQALSYKIGELTIKRLRKEAEQTLGEDFDLREFHDQILKHGSMPLSMLDKIITQYINDKDNSVTK | not soluble
13 | APAILLVDDEPHSLAAMKLALEDDFDVLTAQGAEAAIAILEEEWVQVIICDQRMPGRTGVDFLTEVRERWPETVRIIITGYTDSASMMAAINDAGIHQFLTKPWHPEQLLSSARNAARMFTLARENERLSLEMRLLERP | soluble
14 | ARKCSLTGKWTNNLGSIMTIRAVNSRGEFTGTYLTAVADNPGNITLSPLLGIQHKRASQPTFGFTVHWNFSESTTVFTGQCFIDRNGKEVLKTMWLLRSSVNDISYDWIATRVGYNNFTRLSTVEE | soluble
15 | ASDRQLGPPRMCEPSPREQLMESIRKGKELKQITPPEA | soluble
16 | ASFIEQQVGGSLNEASLAHHIEQVLATNGNLFIGNSLFVRLVDALCKLPEGYPVYTNRGASGIDGLIATMAGIAKASGQPTVGVVGDISALHDLNSISLLSKINHPSILFVINNSGGAIFDMLPVEARVKEQFYRLSHNYEFSQVAAMFGIEYIRPFTWADLKAKLKLAYGRKSATIVEIKVNDQDG | not soluble
17 | ASSNANQAITSENSIKPKGKLQPQMEKYTLTYFNGRGRAEVIRLLFALANVSYEDNRITRDEWKYLKPRTPFGHVPMLNVSGNVLGESHAIELLLGGRFGLLGTNDWEEAKIMAVVLNIDELFQKLIPWTHEKNTTKKAELFRNLSESDVMPFLGRYEKFLKESTTGHIVGNKVSVADLTVFNMLMTLDDEVKLEEYPQLASFVNKIGQMPGIKEWIKKRPKTYF | soluble
18 | ATAAQAERTLPKKYGGRFTVTLIPGDGVGKEITDSVRTIFEAENIPIDWETINIKQTDHKEGVYEAVESLKRNKIGLKGLWHTPADQTGHGSLNVALRKQLDIYANVALFKSLKGVKTRIPDIDLIVIRENTEGEFSGLEHESVPGVVESLKVMTRPKTERIARFAFDFAKKYNRKSVTAVHKANIMKLGDGLFRNIITEIGQKEYPDIDVSSIIVDNASMQAVAKPHQFDVLVTPSMYGTILGNIGAALIGGPGLVAGANFGRDYAVFEPGSRHVGLDIKGQNVANPTAMILSSTLMLNHLGLNEYATRISKAVHETIAEGKHTTRDIGGSSSTTDFTNEIINKLSTMHHHHH | soluble
19 | ATATAYVRSCDGASPPTPPGCGLKLVVDLTLDDSILTGSVLETEVMVTHALHESLFPRDAASDAAGTAATSLQVSLPPITVAMRRGAVQMRYGLTYLRTFPAALRDSVRVLKTAMSCDDGVTRCPSYMSMTGTLVSAPLGLCCLCTSVECALTSDLCNASMRAHFCFRTGAAGITCVQSEGITYHGWAVGSSSPYYMMHLSASGRGIAPTTLQLTTDAPEVQKGASALQILRASGVLPGESNPTVDISGRVLFVPSAEHSSASRSISTGPVRDDDPAEWLLLPAPLVSVSGNDCDKVGISPDYFYSLSSTKQCNAQKGTCVRHQLADYRAADLEQIAQGVGGRYIAASLGTFTRQAMREQEFLLDAVERTGGAMLRWTVNADGLVFQPLPVHGVLDAIKFDSSTGILYVTVRNNNTYGGLYYVAVGQCRGARASNCDSDGVTHECGRTALVAGANTSSLLQFSMVSDLPEEVGSTASCTVVFRDAAAALLASANISWTVEHTTTTPAPNAPKAEQCRRCAFRDLRCLFSTV | not soluble
20 | ATHYSVADRWGNAVSVTYTINASYGSAASIDGAGFLLNNEMDDFSIKPGNPNLYGLVGGDANAIEANKRPLSSMSPTIVLKNNKVFLVVGSPGGSRIITTVLQVISNVIDYNMNISEAVSAPRFHMQWLPDELRIEKFGMPADVKDNLTKMGYQIVTKPVMGDVNAIQVLPKTKGSVFYGSTDPRKEF | soluble
21 | ATMTLTDANFQQAIQGDGPVLVDFWAAWCGPCRMMAPVLEEFAEAHADKVTVAKLNVDENPETTSQFGIMSIPTLILFKGGEPVKQLIGYQPKEQLEAQLADVLQ | soluble
22 | ATTPSANQNWRLLRDESAQLRIADVLQRKEQFRPLAKRSFIFPASPQAVWLQVQLPAQKVPSWLWIFAPRVQYLDYYLVQDGQLVRDQHTGESRPFQERPLPSRSYLFSLPVDGKPMTLYVRMTSNHPLMAWFDQIDEAGLVGLE | soluble
23 | ATVKQPSIGRYTGKPNPSTGKYTVSFIEGDGIGPEISKSVKKIFSAANVPIEWESCDVSPIFVNGLTTIPDPAVQSITKNLVALKGPLATPIGKGHRSLNLTLRKTFGLFANVRPAKSIEGFKTTYENVDLVLIRENTEGEYSGIEHIVCPGVVQSIKLITRDASERVIRYAFEYARAIGRPRVIVVHKSTIQRLADGLFVNVAKELSKEYPDLTLETELIDNSVLKVVTNPSAYTDAVSVCPNLYGDILSDLNSGLSAGSLGLTPSANIGHKISIFEAVHGSAPDIAGQDKANPTALLLSSVMMLNHMGLTNHADQIQNAVLSTIASGPENRTGDLAGTATTSSFTEAVIKRL | soluble
24 | CFTPESTALLESGVRKPLGELSIGDRVLSMTANGQAVYSEVILFMDRNLEQMQNFVQLHTDGGAVLTVTPAHLVSVWQPESQKLTFVFADRIEEKNQVLVRDVETGELRPQRVVKVGSVRSKGVVAPLTREGTIVVNSVAASCYA | soluble
25 | CLKEGGDSNSEKFIVGTNATYPPFEFVDKRGEVVGFDIDLAREISNKLGKTLDVREFSFDALILNLKQHRIDAVITGMSITPSRLKEILMIPYYGEEIKHLVLVFKGENKHPLPLTQYRSVAVQTGTYQEAYLQSLSEVHIRSFDSTLEVLMEVMHGKSPVAVLEPSIAQVVLKDFPALSTATIDLPEDQWVLGYGIGVASDRPALALKIEAAVQEIRKEGVLAELEQKWGLNNLEHHHHHH | soluble
26 | CNFRSTETIVNWVNDHFSKIFSQQVDIESGAVSFHPSVHVIEKNESSTIQAVQFKNREQEARHLIEIINSELNRNPEQTIAVLVRTRTQLPEIISLLRQNNIPYQGTDIDLLANLVHLRDVWSLAHALLFPGNRLSWLSILHSPYVGLGLSDIHCIAQYNSRKSIYHNLLHLDKIQDISEEGRIRANFFIQIMNQALLCRSHSRLSDWIADTLKNLHVEKILDKAQLNDLEQLWMLLDQYEKEGRIPDMNEFLNEFNKLYAQQTTPSRLQIMTIHKSKGLEFDTVILPGLGSQANRGESPMLRWLKLPTQDHGNLLLVSPIKSANQDNCPLYDYLDQLDEEKSAYEAQRLLYVAVTRAKSRLYLLDHSAKSYKSS | not soluble
27 | DDFETSLTELEPLEKDAYIVRLVFAGSTTTEPIVSSLSTAYDIKINILEANIKNTKNGTVGFLVLHIPYISSVDFGKFEKELIERQVKMEVLRHG | soluble
